Among the data in the Human Domainome abundance scans (Beltran et al. 2025) are abundance fitness values, retold here.

± gives the uncertainty stated by the source.

This data set is described as follows: abundance fitness (aPCA) (normalised: wild type 0, dead -1); higher = more abundant; growth selection in yeast, the domain comes from the species named. The conditions noted are these: Homo sapiens.
In turn, “Lipoamide acyltransferase component of branched-chain alpha-keto acid dehydrogenase complex, mitochondrial S189T, P11182” displayed an abundance fitness of -0.033 ± 0.046.

The substance “Lipoamide acyltransferase component of branched-chain alpha-keto acid dehydrogenase complex, mitochondrial S189V, P11182” showed an abundance fitness of -0.199 ± 0.043.

“Lipoamide acyltransferase component of branched-chain alpha-keto acid dehydrogenase complex, mitochondrial S189Y, P11182”: the abundance fitness was -0.258 ± 0.19.

“Lipoamide acyltransferase component of branched-chain alpha-keto acid dehydrogenase complex, mitochondrial S194A, P11182” displayed an abundance fitness of -0.564 ± 0.073.

Substance “Lipoamide acyltransferase component of branched-chain alpha-keto acid dehydrogenase complex, mitochondrial S194C, P11182” registered an abundance fitness of -0.47 ± 0.045.

As to “Lipoamide acyltransferase component of branched-chain alpha-keto acid dehydrogenase complex, mitochondrial S194E, P11182”, the abundance fitness was -0.504 ± 0.049.

“Lipoamide acyltransferase component of branched-chain alpha-keto acid dehydrogenase complex, mitochondrial S194F, P11182” came in with an abundance fitness of -0.917 ± 0.088.

Consider “Lipoamide acyltransferase component of branched-chain alpha-keto acid dehydrogenase complex, mitochondrial S194G, P11182”, for which the abundance fitness is -0.319 ± 0.052.

“Lipoamide acyltransferase component of branched-chain alpha-keto acid dehydrogenase complex, mitochondrial S194I, P11182” gave an abundance fitness of -0.738 ± 0.12.

“Lipoamide acyltransferase component of branched-chain alpha-keto acid dehydrogenase complex, mitochondrial S194K, P11182” registered an abundance fitness of -0.378 ± 0.057.

Substance “Lipoamide acyltransferase component of branched-chain alpha-keto acid dehydrogenase complex, mitochondrial S194M, P11182” displayed an abundance fitness of -0.628 ± 0.082.

Take “Lipoamide acyltransferase component of branched-chain alpha-keto acid dehydrogenase complex, mitochondrial S194N, P11182”: the abundance fitness was -0.287 ± 0.049.

Turning to “Lipoamide acyltransferase component of branched-chain alpha-keto acid dehydrogenase complex, mitochondrial S194P, P11182”, the abundance fitness is -0.694 ± 0.075.

Substance “Lipoamide acyltransferase component of branched-chain alpha-keto acid dehydrogenase complex, mitochondrial S194R, P11182” had an abundance fitness of -0.314 ± 0.037.

Substance “Lipoamide acyltransferase component of branched-chain alpha-keto acid dehydrogenase complex, mitochondrial S194T, P11182” had an abundance fitness of -0.013 ± 0.06.

Take “Lipoamide acyltransferase component of branched-chain alpha-keto acid dehydrogenase complex, mitochondrial S194V, P11182”: the abundance fitness is -0.864 ± 0.064.

Substance “Lipoamide acyltransferase component of branched-chain alpha-keto acid dehydrogenase complex, mitochondrial S194W, P11182” came in with an abundance fitness of -0.937 ± 0.069.

“Lipoamide acyltransferase component of branched-chain alpha-keto acid dehydrogenase complex, mitochondrial T171A, P11182”: the abundance fitness is -0.215 ± 0.055.
